Measured values taken from the supplement of paper PMC10065799, “High-throughput profiling of sequence recognition by tyrosine kinases and SH2 domains using bacterial peptide display” (eLife, 2023).

target: FGFR1 (UniProt P11362); assay: phosphorylation enrichment, bacterial display (enrichment ratio); higher = better substrate or ligand; peptides without Tyr show the background
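Also: 11-residue human phosphosite peptides and single-mutation variants displayed on the E. coli surface, counted by deep sequencing, each peptide's frequency after selection divided by its frequency in the unselected input library; frequency after pTyr selection over input frequency; kinase dosed for 20-30% of maximal phosphorylation in three min.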

Chain of FGFR1 (P11362 whole entry, looked up): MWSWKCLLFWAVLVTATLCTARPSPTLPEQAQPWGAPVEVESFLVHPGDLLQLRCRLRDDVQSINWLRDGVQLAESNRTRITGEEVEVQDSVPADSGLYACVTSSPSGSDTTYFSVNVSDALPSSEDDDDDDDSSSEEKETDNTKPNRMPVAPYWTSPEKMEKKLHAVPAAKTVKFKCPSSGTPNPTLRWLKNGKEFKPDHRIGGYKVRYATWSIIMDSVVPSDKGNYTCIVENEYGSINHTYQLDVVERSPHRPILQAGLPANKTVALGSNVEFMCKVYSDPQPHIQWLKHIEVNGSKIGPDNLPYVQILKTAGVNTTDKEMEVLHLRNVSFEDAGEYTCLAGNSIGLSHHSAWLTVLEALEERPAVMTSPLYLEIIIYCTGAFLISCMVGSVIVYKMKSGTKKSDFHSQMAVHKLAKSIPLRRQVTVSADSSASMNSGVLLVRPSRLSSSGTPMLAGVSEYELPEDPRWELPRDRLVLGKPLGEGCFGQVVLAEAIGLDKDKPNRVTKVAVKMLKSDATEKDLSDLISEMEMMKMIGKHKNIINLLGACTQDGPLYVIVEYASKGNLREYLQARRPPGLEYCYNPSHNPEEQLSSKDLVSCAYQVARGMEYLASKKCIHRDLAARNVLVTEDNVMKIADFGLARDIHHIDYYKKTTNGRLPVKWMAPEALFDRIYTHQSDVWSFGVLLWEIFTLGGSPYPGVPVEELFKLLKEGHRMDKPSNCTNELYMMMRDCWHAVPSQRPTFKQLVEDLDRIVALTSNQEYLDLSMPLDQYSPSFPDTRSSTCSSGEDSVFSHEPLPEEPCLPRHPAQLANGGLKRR

Q: MRALIYNSSTA [PLEKHA7_Y243] was tested. Which phosphorylation enrichment did it give?
A: 0.448

Q: For ILTLKYPIELG [ACTA1_Y71_H75L], which phosphorylation enrichment is on record?
A: 0.47

Q: Which phosphorylation enrichment does the source give for QDEHGYIFRCF [HSPB1_Y133_S135F] here?
A: 0.912

Q: With LSGFGYRLSDQ [PDCD6_Y124] as the sequence, how does the phosphorylation enrichment read?
A: 0.787

Q: LEDDVYRKTCT [XPA_Y257_M256V] was tested. Which phosphorylation enrichment did it give?
A: 1.05

Q: RGNMFYENSFA [EGFR_Y113_YF] was tested. Which phosphorylation enrichment did it give?
A: 0.785

Q: With CNPLRYPTIMI [OR6K6_Y160] as the sequence, how does the phosphorylation enrichment read?
A: 0.584

Q: With SLLTDYSPQLQ [OTC_Y345] as the sequence, how does the phosphorylation enrichment read?
A: 0.447

Q: For LIQRNYKLAAQ [ALPK2_Y1975], which phosphorylation enrichment is on record?
A: 0.937

Q: How did the phosphorylation enrichment turn out when ILTLKYPIEHG [ACTA1_Y71] was run?
A: 0.47

Q: For ESSKAYERALS [TTC37_Y1074], which phosphorylation enrichment is on record?
A: 0.423

Q: With CSSPTYRDCLQ [LARGE2_Y682_R677C] as the sequence, how does the phosphorylation enrichment read?
A: 0.49

Q: How did the phosphorylation enrichment turn out when YSMGCYEIYLG [HMGCL_Y198_S201Y] was run?
A: 2.06

Q: How did the phosphorylation enrichment turn out when QGIYGYHHYMQ [UFSP2_Y287] was run?
A: 1.32

Q: With KSPDSYQKILL [ATM_Y1415] as the sequence, how does the phosphorylation enrichment read?
A: 0.488

Q: For PRLMLYNPTTF [EGFR_Y270_P266R_YF], which phosphorylation enrichment is on record?
A: 0.772

Q: For RRVPVYGGRGA [QDPR_Y16_L14P], which phosphorylation enrichment is on record?
A: 0.762

Q: With TEQDPYNNIVR [MMUT_Y364] as the sequence, how does the phosphorylation enrichment read?
A: 0.466

Q: For SHTPSYCDESL [RITA1_Y109], which phosphorylation enrichment is on record?
A: 0.502

Q: HYPDVYAREQL [ALX3_Y181] was tested. Which phosphorylation enrichment did it give?
A: 0.651

Q: How did the phosphorylation enrichment turn out when VCHELYNAIRD [PBRM1_Y54_T56A] was run?
A: 0.464

Q: KSSDVYVSFDC [SORL1_Y136_Y141C_YF] was tested. Which phosphorylation enrichment did it give?
A: 1.92

Q: With KILPEYLSNWT [AIFM1_Y347] as the sequence, how does the phosphorylation enrichment read?
A: 0.543

Q: For TVQVAYFTMMM [SPATA17_Y83_YF], which phosphorylation enrichment is on record?
A: 1.04

Q: With IGNGFYFRVFS [MYBPC3_Y1136_YF] as the sequence, how does the phosphorylation enrichment read?
A: 0.438

Q: EQQNMYRLKVL [ABCC6_Y372] was tested. Which phosphorylation enrichment did it give?
A: 0.521

Q: How did the phosphorylation enrichment turn out when QRIYQYIRSRF [DYRK1B_Y273_Q275R] was run?
A: 0.677

Q: YETSHYPASPD [CTNND2_Y1217] was tested. Which phosphorylation enrichment did it give?
A: 0.454

Q: How did the phosphorylation enrichment turn out when APEVIYATPGA [ABLtide_2014] was run?
A: 0.879

target: EPHB2 (UniProt P29323); assay: as above
Sequence (P29323 whole entry, looked up): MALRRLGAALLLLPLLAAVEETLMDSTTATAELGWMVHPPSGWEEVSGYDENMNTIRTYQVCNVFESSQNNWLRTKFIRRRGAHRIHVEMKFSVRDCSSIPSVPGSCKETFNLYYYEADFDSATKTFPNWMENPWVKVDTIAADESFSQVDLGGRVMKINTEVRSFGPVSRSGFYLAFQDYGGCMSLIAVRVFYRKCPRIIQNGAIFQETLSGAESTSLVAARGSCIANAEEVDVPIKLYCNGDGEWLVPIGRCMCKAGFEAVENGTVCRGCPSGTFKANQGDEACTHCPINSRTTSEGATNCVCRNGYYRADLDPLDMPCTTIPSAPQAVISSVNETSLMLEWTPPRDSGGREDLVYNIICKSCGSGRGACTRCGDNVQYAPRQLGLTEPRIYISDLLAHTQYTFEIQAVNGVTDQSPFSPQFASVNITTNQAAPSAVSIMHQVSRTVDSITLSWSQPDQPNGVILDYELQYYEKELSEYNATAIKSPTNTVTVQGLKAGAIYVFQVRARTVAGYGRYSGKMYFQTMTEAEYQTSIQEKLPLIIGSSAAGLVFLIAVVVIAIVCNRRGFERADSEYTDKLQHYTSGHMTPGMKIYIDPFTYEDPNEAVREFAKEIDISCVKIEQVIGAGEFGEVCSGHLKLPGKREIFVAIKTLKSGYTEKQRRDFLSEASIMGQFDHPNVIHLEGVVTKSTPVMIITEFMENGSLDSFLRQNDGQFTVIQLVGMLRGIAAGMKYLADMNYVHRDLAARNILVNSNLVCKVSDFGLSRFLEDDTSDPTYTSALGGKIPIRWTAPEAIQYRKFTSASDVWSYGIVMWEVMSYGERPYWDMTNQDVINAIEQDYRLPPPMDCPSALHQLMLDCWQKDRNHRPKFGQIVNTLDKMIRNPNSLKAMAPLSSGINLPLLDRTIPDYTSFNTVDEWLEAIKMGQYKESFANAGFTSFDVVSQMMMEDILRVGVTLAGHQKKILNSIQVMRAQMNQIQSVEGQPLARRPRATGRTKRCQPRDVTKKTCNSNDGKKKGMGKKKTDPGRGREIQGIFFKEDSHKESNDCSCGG

Q: Which phosphorylation enrichment does the source give for MRALIYNSSTA [PLEKHA7_Y243] here?
A: 0.453

Q: Which phosphorylation enrichment does the source give for ILTLKYPIELG [ACTA1_Y71_H75L] here?
A: 0.572

Q: Which phosphorylation enrichment does the source give for QDEHGYIFRCF [HSPB1_Y133_S135F] here?
A: 0.762

Q: For LSGFGYRLSDQ [PDCD6_Y124], which phosphorylation enrichment is on record?
A: 0.502

Q: LEDDVYRKTCT [XPA_Y257_M256V] was tested. Which phosphorylation enrichment did it give?
A: 0.724

Q: How did the phosphorylation enrichment turn out when RGNMFYENSFA [EGFR_Y113_YF] was run?
A: 0.663

Q: For CNPLRYPTIMI [OR6K6_Y160], which phosphorylation enrichment is on record?
A: 0.758

Q: With SLLTDYSPQLQ [OTC_Y345] as the sequence, how does the phosphorylation enrichment read?
A: 0.508

Q: Which phosphorylation enrichment does the source give for LIQRNYKLAAQ [ALPK2_Y1975] here?
A: 0.604

Q: How did the phosphorylation enrichment turn out when ILTLKYPIEHG [ACTA1_Y71] was run?
A: 0.485

Q: Which phosphorylation enrichment does the source give for ESSKAYERALS [TTC37_Y1074] here?
A: 0.624

Q: CSSPTYRDCLQ [LARGE2_Y682_R677C] was tested. Which phosphorylation enrichment did it give?
A: 0.436

Q: YSMGCYEIYLG [HMGCL_Y198_S201Y] was tested. Which phosphorylation enrichment did it give?
A: 8.68

Q: Which phosphorylation enrichment does the source give for QGIYGYHHYMQ [UFSP2_Y287] here?
A: 8.11

Q: Which phosphorylation enrichment does the source give for KSPDSYQKILL [ATM_Y1415] here?
A: 0.437

Q: Which phosphorylation enrichment does the source give for PRLMLYNPTTF [EGFR_Y270_P266R_YF] here?
A: 0.811

Q: RRVPVYGGRGA [QDPR_Y16_L14P] was tested. Which phosphorylation enrichment did it give?
A: 0.512

Q: For TEQDPYNNIVR [MMUT_Y364], which phosphorylation enrichment is on record?
A: 0.499

Q: For SHTPSYCDESL [RITA1_Y109], which phosphorylation enrichment is on record?
A: 0.459

Q: How did the phosphorylation enrichment turn out when HYPDVYAREQL [ALX3_Y181] was run?
A: 0.513

Q: How did the phosphorylation enrichment turn out when VCHELYNAIRD [PBRM1_Y54_T56A] was run?
A: 0.574

Q: Which phosphorylation enrichment does the source give for KSSDVYVSFDC [SORL1_Y136_Y141C_YF] here?
A: 0.802

Q: Which phosphorylation enrichment does the source give for KILPEYLSNWT [AIFM1_Y347] here?
A: 0.513

Q: How did the phosphorylation enrichment turn out when TVQVAYFTMMM [SPATA17_Y83_YF] was run?
A: 0.667

Q: IGNGFYFRVFS [MYBPC3_Y1136_YF] was tested. Which phosphorylation enrichment did it give?
A: 0.568

Q: How did the phosphorylation enrichment turn out when EQQNMYRLKVL [ABCC6_Y372] was run?
A: 0.5

Q: For QRIYQYIRSRF [DYRK1B_Y273_Q275R], which phosphorylation enrichment is on record?
A: 0.601

Q: How did the phosphorylation enrichment turn out when YETSHYPASPD [CTNND2_Y1217] was run?
A: 0.512

Q: How did the phosphorylation enrichment turn out when APEVIYATPGA [ABLtide_2014] was run?
A: 8.54

target: Fyn (UniProt P06241); assay: as above
Sequence (P06241 whole entry, looked up): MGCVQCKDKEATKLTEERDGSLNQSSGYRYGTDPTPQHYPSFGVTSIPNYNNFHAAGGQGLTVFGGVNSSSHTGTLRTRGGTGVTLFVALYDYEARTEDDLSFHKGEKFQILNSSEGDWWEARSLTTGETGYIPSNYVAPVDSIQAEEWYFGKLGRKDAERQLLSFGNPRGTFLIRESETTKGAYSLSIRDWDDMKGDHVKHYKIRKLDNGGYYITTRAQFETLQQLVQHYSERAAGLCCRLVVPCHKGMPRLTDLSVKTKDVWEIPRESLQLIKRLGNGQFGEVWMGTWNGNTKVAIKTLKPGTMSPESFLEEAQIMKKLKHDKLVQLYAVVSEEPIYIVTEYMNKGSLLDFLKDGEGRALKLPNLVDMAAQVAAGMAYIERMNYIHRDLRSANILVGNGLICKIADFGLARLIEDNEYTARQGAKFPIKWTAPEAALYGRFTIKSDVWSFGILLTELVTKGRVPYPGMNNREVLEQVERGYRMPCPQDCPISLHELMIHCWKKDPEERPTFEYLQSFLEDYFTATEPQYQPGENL

Q: For MRALIYNSSTA [PLEKHA7_Y243], which phosphorylation enrichment is on record?
A: 0.622

Q: ILTLKYPIELG [ACTA1_Y71_H75L] was tested. Which phosphorylation enrichment did it give?
A: 0.435

Q: For QDEHGYIFRCF [HSPB1_Y133_S135F], which phosphorylation enrichment is on record?
A: 0.924

Q: For LSGFGYRLSDQ [PDCD6_Y124], which phosphorylation enrichment is on record?
A: 0.731

Q: With LEDDVYRKTCT [XPA_Y257_M256V] as the sequence, how does the phosphorylation enrichment read?
A: 1

Q: For RGNMFYENSFA [EGFR_Y113_YF], which phosphorylation enrichment is on record?
A: 0.997

Q: How did the phosphorylation enrichment turn out when CNPLRYPTIMI [OR6K6_Y160] was run?
A: 0.524

Q: Which phosphorylation enrichment does the source give for SLLTDYSPQLQ [OTC_Y345] here?
A: 0.45

Q: LIQRNYKLAAQ [ALPK2_Y1975] was tested. Which phosphorylation enrichment did it give?
A: 0.571

Q: Which phosphorylation enrichment does the source give for ILTLKYPIEHG [ACTA1_Y71] here?
A: 0.437

Q: How did the phosphorylation enrichment turn out when ESSKAYERALS [TTC37_Y1074] was run?
A: 0.412

Q: How did the phosphorylation enrichment turn out when CSSPTYRDCLQ [LARGE2_Y682_R677C] was run?
A: 0.402

Q: How did the phosphorylation enrichment turn out when YSMGCYEIYLG [HMGCL_Y198_S201Y] was run?
A: 6.34

Q: With QGIYGYHHYMQ [UFSP2_Y287] as the sequence, how does the phosphorylation enrichment read?
A: 10.6

Q: For KSPDSYQKILL [ATM_Y1415], which phosphorylation enrichment is on record?
A: 0.372

Q: How did the phosphorylation enrichment turn out when PRLMLYNPTTF [EGFR_Y270_P266R_YF] was run?
A: 0.748

Q: RRVPVYGGRGA [QDPR_Y16_L14P] was tested. Which phosphorylation enrichment did it give?
A: 0.626

Q: TEQDPYNNIVR [MMUT_Y364] was tested. Which phosphorylation enrichment did it give?
A: 0.545

Q: With SHTPSYCDESL [RITA1_Y109] as the sequence, how does the phosphorylation enrichment read?
A: 0.405

Q: How did the phosphorylation enrichment turn out when HYPDVYAREQL [ALX3_Y181] was run?
A: 0.906

Q: With VCHELYNAIRD [PBRM1_Y54_T56A] as the sequence, how does the phosphorylation enrichment read?
A: 0.672

Q: KSSDVYVSFDC [SORL1_Y136_Y141C_YF] was tested. Which phosphorylation enrichment did it give?
A: 5.22

Q: How did the phosphorylation enrichment turn out when KILPEYLSNWT [AIFM1_Y347] was run?
A: 0.463

Q: With TVQVAYFTMMM [SPATA17_Y83_YF] as the sequence, how does the phosphorylation enrichment read?
A: 0.5

Q: Which phosphorylation enrichment does the source give for IGNGFYFRVFS [MYBPC3_Y1136_YF] here?
A: 0.365

Q: How did the phosphorylation enrichment turn out when EQQNMYRLKVL [ABCC6_Y372] was run?
A: 0.41

Q: QRIYQYIRSRF [DYRK1B_Y273_Q275R] was tested. Which phosphorylation enrichment did it give?
A: 0.809

Q: YETSHYPASPD [CTNND2_Y1217] was tested. Which phosphorylation enrichment did it give?
A: 0.434

Q: With APEVIYATPGA [ABLtide_2014] as the sequence, how does the phosphorylation enrichment read?
A: 8.17

system: c-Abl (mouse); assay: as above

Q: How did the phosphorylation enrichment turn out when MRALIYNSSTA [PLEKHA7_Y243] was run?
A: 0.741

Q: With ILTLKYPIELG [ACTA1_Y71_H75L] as the sequence, how does the phosphorylation enrichment read?
A: 0.476

Q: Which phosphorylation enrichment does the source give for QDEHGYIFRCF [HSPB1_Y133_S135F] here?
A: 1.19

Q: With LSGFGYRLSDQ [PDCD6_Y124] as the sequence, how does the phosphorylation enrichment read?
A: 0.787

Q: LEDDVYRKTCT [XPA_Y257_M256V] was tested. Which phosphorylation enrichment did it give?
A: 1.74

Q: For RGNMFYENSFA [EGFR_Y113_YF], which phosphorylation enrichment is on record?
A: 0.533

Q: How did the phosphorylation enrichment turn out when CNPLRYPTIMI [OR6K6_Y160] was run?
A: 0.737

Q: With SLLTDYSPQLQ [OTC_Y345] as the sequence, how does the phosphorylation enrichment read?
A: 0.483

Q: With LIQRNYKLAAQ [ALPK2_Y1975] as the sequence, how does the phosphorylation enrichment read?
A: 0.773

Q: ILTLKYPIEHG [ACTA1_Y71] was tested. Which phosphorylation enrichment did it give?
A: 0.57

Q: For ESSKAYERALS [TTC37_Y1074], which phosphorylation enrichment is on record?
A: 0.618

Q: How did the phosphorylation enrichment turn out when CSSPTYRDCLQ [LARGE2_Y682_R677C] was run?
A: 0.503

Q: With YSMGCYEIYLG [HMGCL_Y198_S201Y] as the sequence, how does the phosphorylation enrichment read?
A: 1.37

Q: For QGIYGYHHYMQ [UFSP2_Y287], which phosphorylation enrichment is on record?
A: 5.12

Q: For KSPDSYQKILL [ATM_Y1415], which phosphorylation enrichment is on record?
A: 0.569

Q: With PRLMLYNPTTF [EGFR_Y270_P266R_YF] as the sequence, how does the phosphorylation enrichment read?
A: 1.12

Q: How did the phosphorylation enrichment turn out when RRVPVYGGRGA [QDPR_Y16_L14P] was run?
A: 1.28

Q: With TEQDPYNNIVR [MMUT_Y364] as the sequence, how does the phosphorylation enrichment read?
A: 0.582

Q: With SHTPSYCDESL [RITA1_Y109] as the sequence, how does the phosphorylation enrichment read?
A: 0.566

Q: HYPDVYAREQL [ALX3_Y181] was tested. Which phosphorylation enrichment did it give?
A: 0.511

Q: For VCHELYNAIRD [PBRM1_Y54_T56A], which phosphorylation enrichment is on record?
A: 0.693

Q: With KSSDVYVSFDC [SORL1_Y136_Y141C_YF] as the sequence, how does the phosphorylation enrichment read?
A: 0.786

Q: KILPEYLSNWT [AIFM1_Y347] was tested. Which phosphorylation enrichment did it give?
A: 0.677

Q: With TVQVAYFTMMM [SPATA17_Y83_YF] as the sequence, how does the phosphorylation enrichment read?
A: 0.791

Q: Which phosphorylation enrichment does the source give for IGNGFYFRVFS [MYBPC3_Y1136_YF] here?
A: 0.818

Q: EQQNMYRLKVL [ABCC6_Y372] was tested. Which phosphorylation enrichment did it give?
A: 0.619

Q: For QRIYQYIRSRF [DYRK1B_Y273_Q275R], which phosphorylation enrichment is on record?
A: 1.27

Q: How did the phosphorylation enrichment turn out when YETSHYPASPD [CTNND2_Y1217] was run?
A: 0.528

Q: APEVIYATPGA [ABLtide_2014] was tested. Which phosphorylation enrichment did it give?
A: 34.4
